Assay results published in publication PMC7948499, “The molecular basis of the nonprocessive elongation mechanism in levansucrases” (The Journal of Biological Chemistry, 2020).

Columns and labels:
[1] = target: T1, SacB (Bacillus subtilis levansucrase, LS) (Bacillus subtilis, UniProt P05655, D86A/E342A); assay: X-ray crystal structure, […] Å, cocrystallization; type: binding; conditions: catalytically inactive mutant; pH 6.0, 18 °C; active site (OB1, six fructose units modelled as levanhexaose); second site OB2 about 20 Å away (levanhexaose in chain A, levanbiose in chain B)
T1 construct: sacB gene of strain 168 in pET22b, expressed in E. coli BL21(DE3); residues 32-471 modelled in crystal
T1 sequence (P05655 30-473 D86A/E342A): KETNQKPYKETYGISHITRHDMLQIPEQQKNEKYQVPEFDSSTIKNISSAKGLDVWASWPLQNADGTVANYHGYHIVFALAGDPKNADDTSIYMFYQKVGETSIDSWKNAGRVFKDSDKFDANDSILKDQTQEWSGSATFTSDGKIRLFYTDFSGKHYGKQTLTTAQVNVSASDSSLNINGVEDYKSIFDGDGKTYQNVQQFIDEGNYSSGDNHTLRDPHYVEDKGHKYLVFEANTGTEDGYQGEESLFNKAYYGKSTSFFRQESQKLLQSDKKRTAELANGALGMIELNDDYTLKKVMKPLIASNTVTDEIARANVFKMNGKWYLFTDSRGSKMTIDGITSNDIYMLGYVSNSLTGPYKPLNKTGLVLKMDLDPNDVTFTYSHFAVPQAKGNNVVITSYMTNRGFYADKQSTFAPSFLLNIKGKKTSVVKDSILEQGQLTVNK

[2] = substrate: OC[C@H]1O[C@@](CO)(O[C@H]2O[C@H](CO)[C@@H](O)[C@H](O)[C@H]2O)[C@@H](O)[C@@H]1O; assay: initial rates, reducing sugar release by dinitrosalicylic acid; type: biochemical, Bacillus subtilis; conditions: 50 mM acetate pH 6.0, 0-300 mM sucrose, 1 mM CaCl2 in enzyme buffer
[3] = substrate: OC[C@H]1O[C@@](CO)(O[C@H]2O[C@H](CO)[C@@H](O)[C@H](O)[C@H]2O)[C@@H](O)[C@@H]1O; assay: as above; type: biochemical, Bacillus subtilis; conditions: 50 mM acetate pH 6.0, 0-300 mM sucrose, 1 mM CaCl2 in enzyme buffer; remark: listed apart in the source
Procedure: initial rates, reducing sugar release by dinitrosalicylic acid on SacB (Bacillus subtilis levansucrase, LS) | were expressed and purified, and their kinetic parameters were determined (Fig. 4B)

OC[C@H]1O[C@@](CO)(OC[C@H]2O[C@@](CO)(OC[C@H]3O[C@@](CO)(OC[C@H]4O[C@@](CO)(OC[C@H]5O[C@@](CO)(OC[C@H]6O[C@@](CO)(OC[C@H]7O[C@@](CO)(O[C@H]8O[C@H](CO)[C@@H](O)[C@H](O)[C@H]8O)[C@@H](O)[C@@H]7O)[C@@H](O)[C@@H]6O)[C@@H](O)[C@@H]5O)[C@@H](O)[C@@H]4O)[C@@H](O)[C@@H]3O)[C@@H](O)[C@@H]2O)[C@@H](O)[C@@H]1O [6,6,6,6,6,6-kestooctaose]
X-ray crystal structure, 2.05 Å, cocrystallization [1]: inactive double mutant of SacB (D86A/E342A) cocrystallized in the presence of a levan-type FOS

B1: SacB (Bacillus subtilis levansucrase, LS) (Bacillus subtilis subsp. subtilis str. 168) (protein)
chain: KETNQKPYKETYGISHITRHDMLQIPEQQKNEKYQVPEFDSSTIKNISSAKGLDVWDSWPLQNADGTVANYHGYHIVFALAGDPKNADDTSIYMFYQKVGETSIDSWKNAGRVFKDSDKFDANDSILKDQTQEWSGSATFTSDGKIRLFYTDFSGKHYGKQTLTTAQVNVSASDSSLNINGVEDYKSIFDGDGKTYQNVQQFIDEGNYSSGDNHTLRDPHYVEDKGHKYLVFEANTGTEDGYQGEESLFNKAYYGKSTSFFRQESQKLLQSDKKRTAELANGALGMIELNDDYTLKKVMKPLIASNTVTDEIERANVFKMNGKWYLFTDSRGSKMTIDGITSNDIYMLGYVSNSLTGPYKPLNKTGLVLKMDLDPNDVTFTYSHFAVPQAKGNNVVITSYMTNRGFYADKQSTFAPSFLLNIKGKKTSVVKDSILEQGQLTVNK
notes: sacB gene of strain 168 in pET22b, expressed in E. coli BL21(DE3); residues 32-471 modelled in crystal
Km [2]: 9 mM
kcat [2]: 236.7 s⁻¹

B2: SacB (Bacillus subtilis levansucrase, LS) (Bacillus subtilis subsp. subtilis str. 168; F182Y) (protein)
chain: KETNQKPYKETYGISHITRHDMLQIPEQQKNEKYQVPEFDSSTIKNISSAKGLDVWDSWPLQNADGTVANYHGYHIVFALAGDPKNADDTSIYMFYQKVGETSIDSWKNAGRVFKDSDKFDANDSILKDQTQEWSGSATFTSDGKIRLFYTDYSGKHYGKQTLTTAQVNVSASDSSLNINGVEDYKSIFDGDGKTYQNVQQFIDEGNYSSGDNHTLRDPHYVEDKGHKYLVFEANTGTEDGYQGEESLFNKAYYGKSTSFFRQESQKLLQSDKKRTAELANGALGMIELNDDYTLKKVMKPLIASNTVTDEIERANVFKMNGKWYLFTDSRGSKMTIDGITSNDIYMLGYVSNSLTGPYKPLNKTGLVLKMDLDPNDVTFTYSHFAVPQAKGNNVVITSYMTNRGFYADKQSTFAPSFLLNIKGKKTSVVKDSILEQGQLTVNK
notes: as for B1
Km [3]: 10.3 (0.7) mM
kcat [3]: 162.2 (2.6) s^-1

B3: SacB (Bacillus subtilis levansucrase, LS) (Bacillus subtilis subsp. subtilis str. 168; Y237A) (protein)
chain: KETNQKPYKETYGISHITRHDMLQIPEQQKNEKYQVPEFDSSTIKNISSAKGLDVWDSWPLQNADGTVANYHGYHIVFALAGDPKNADDTSIYMFYQKVGETSIDSWKNAGRVFKDSDKFDANDSILKDQTQEWSGSATFTSDGKIRLFYTDFSGKHYGKQTLTTAQVNVSASDSSLNINGVEDYKSIFDGDGKTYQNVQQFIDEGNASSGDNHTLRDPHYVEDKGHKYLVFEANTGTEDGYQGEESLFNKAYYGKSTSFFRQESQKLLQSDKKRTAELANGALGMIELNDDYTLKKVMKPLIASNTVTDEIERANVFKMNGKWYLFTDSRGSKMTIDGITSNDIYMLGYVSNSLTGPYKPLNKTGLVLKMDLDPNDVTFTYSHFAVPQAKGNNVVITSYMTNRGFYADKQSTFAPSFLLNIKGKKTSVVKDSILEQGQLTVNK
notes: as for B1
Km [2]: 10.6 (1.7) mM
kcat [2]: 256.3 (9.3) s^-1

B4: SacB (Bacillus subtilis levansucrase, LS) (Bacillus subtilis subsp. subtilis str. 168; N242A) (protein)
chain: KETNQKPYKETYGISHITRHDMLQIPEQQKNEKYQVPEFDSSTIKNISSAKGLDVWDSWPLQNADGTVANYHGYHIVFALAGDPKNADDTSIYMFYQKVGETSIDSWKNAGRVFKDSDKFDANDSILKDQTQEWSGSATFTSDGKIRLFYTDFSGKHYGKQTLTTAQVNVSASDSSLNINGVEDYKSIFDGDGKTYQNVQQFIDEGNYSSGDAHTLRDPHYVEDKGHKYLVFEANTGTEDGYQGEESLFNKAYYGKSTSFFRQESQKLLQSDKKRTAELANGALGMIELNDDYTLKKVMKPLIASNTVTDEIERANVFKMNGKWYLFTDSRGSKMTIDGITSNDIYMLGYVSNSLTGPYKPLNKTGLVLKMDLDPNDVTFTYSHFAVPQAKGNNVVITSYMTNRGFYADKQSTFAPSFLLNIKGKKTSVVKDSILEQGQLTVNK
notes: as for B1
Km [2]: 19.9 mM

B5: SacB (Bacillus subtilis levansucrase, LS) (Bacillus subtilis subsp. subtilis str. 168; F182W) (protein)
chain: KETNQKPYKETYGISHITRHDMLQIPEQQKNEKYQVPEFDSSTIKNISSAKGLDVWDSWPLQNADGTVANYHGYHIVFALAGDPKNADDTSIYMFYQKVGETSIDSWKNAGRVFKDSDKFDANDSILKDQTQEWSGSATFTSDGKIRLFYTDWSGKHYGKQTLTTAQVNVSASDSSLNINGVEDYKSIFDGDGKTYQNVQQFIDEGNYSSGDNHTLRDPHYVEDKGHKYLVFEANTGTEDGYQGEESLFNKAYYGKSTSFFRQESQKLLQSDKKRTAELANGALGMIELNDDYTLKKVMKPLIASNTVTDEIERANVFKMNGKWYLFTDSRGSKMTIDGITSNDIYMLGYVSNSLTGPYKPLNKTGLVLKMDLDPNDVTFTYSHFAVPQAKGNNVVITSYMTNRGFYADKQSTFAPSFLLNIKGKKTSVVKDSILEQGQLTVNK
notes: as for B1
Km [3]: 10.5 (1.3) mM
kcat [3]: 129.4 (3.6) s^-1

B6: SacB (Bacillus subtilis levansucrase, LS) (Bacillus subtilis subsp. subtilis str. 168; K363A) (protein)
chain: KETNQKPYKETYGISHITRHDMLQIPEQQKNEKYQVPEFDSSTIKNISSAKGLDVWDSWPLQNADGTVANYHGYHIVFALAGDPKNADDTSIYMFYQKVGETSIDSWKNAGRVFKDSDKFDANDSILKDQTQEWSGSATFTSDGKIRLFYTDFSGKHYGKQTLTTAQVNVSASDSSLNINGVEDYKSIFDGDGKTYQNVQQFIDEGNYSSGDNHTLRDPHYVEDKGHKYLVFEANTGTEDGYQGEESLFNKAYYGKSTSFFRQESQKLLQSDKKRTAELANGALGMIELNDDYTLKKVMKPLIASNTVTDEIERANVFKMNGKWYLFTDSRGSAMTIDGITSNDIYMLGYVSNSLTGPYKPLNKTGLVLKMDLDPNDVTFTYSHFAVPQAKGNNVVITSYMTNRGFYADKQSTFAPSFLLNIKGKKTSVVKDSILEQGQLTVNK
notes: as for B1
Km [3]: 10.5 (2.2) mM
kcat [3]: 95.4 (2.2) s^-1

B7: SacB (Bacillus subtilis levansucrase, LS) (Bacillus subtilis subsp. subtilis str. 168; F182A) (protein)
chain: KETNQKPYKETYGISHITRHDMLQIPEQQKNEKYQVPEFDSSTIKNISSAKGLDVWDSWPLQNADGTVANYHGYHIVFALAGDPKNADDTSIYMFYQKVGETSIDSWKNAGRVFKDSDKFDANDSILKDQTQEWSGSATFTSDGKIRLFYTDASGKHYGKQTLTTAQVNVSASDSSLNINGVEDYKSIFDGDGKTYQNVQQFIDEGNYSSGDNHTLRDPHYVEDKGHKYLVFEANTGTEDGYQGEESLFNKAYYGKSTSFFRQESQKLLQSDKKRTAELANGALGMIELNDDYTLKKVMKPLIASNTVTDEIERANVFKMNGKWYLFTDSRGSKMTIDGITSNDIYMLGYVSNSLTGPYKPLNKTGLVLKMDLDPNDVTFTYSHFAVPQAKGNNVVITSYMTNRGFYADKQSTFAPSFLLNIKGKKTSVVKDSILEQGQLTVNK
notes: as for B1
Km [2]: 14.5 mM

B8: SacB (Bacillus subtilis levansucrase, LS) (Bacillus subtilis subsp. subtilis str. 168; Y187A) (protein)
chain: KETNQKPYKETYGISHITRHDMLQIPEQQKNEKYQVPEFDSSTIKNISSAKGLDVWDSWPLQNADGTVANYHGYHIVFALAGDPKNADDTSIYMFYQKVGETSIDSWKNAGRVFKDSDKFDANDSILKDQTQEWSGSATFTSDGKIRLFYTDFSGKHAGKQTLTTAQVNVSASDSSLNINGVEDYKSIFDGDGKTYQNVQQFIDEGNYSSGDNHTLRDPHYVEDKGHKYLVFEANTGTEDGYQGEESLFNKAYYGKSTSFFRQESQKLLQSDKKRTAELANGALGMIELNDDYTLKKVMKPLIASNTVTDEIERANVFKMNGKWYLFTDSRGSKMTIDGITSNDIYMLGYVSNSLTGPYKPLNKTGLVLKMDLDPNDVTFTYSHFAVPQAKGNNVVITSYMTNRGFYADKQSTFAPSFLLNIKGKKTSVVKDSILEQGQLTVNK
notes: as for B1
Km [3]: 8.4 (0.9) mM
kcat [3]: 199.2 (4.4) s^-1

B9: SacB (Bacillus subtilis levansucrase, LS) (Bacillus subtilis subsp. subtilis str. 168; D117A) (protein)
chain: KETNQKPYKETYGISHITRHDMLQIPEQQKNEKYQVPEFDSSTIKNISSAKGLDVWDSWPLQNADGTVANYHGYHIVFALAGDPKNAADTSIYMFYQKVGETSIDSWKNAGRVFKDSDKFDANDSILKDQTQEWSGSATFTSDGKIRLFYTDFSGKHYGKQTLTTAQVNVSASDSSLNINGVEDYKSIFDGDGKTYQNVQQFIDEGNYSSGDNHTLRDPHYVEDKGHKYLVFEANTGTEDGYQGEESLFNKAYYGKSTSFFRQESQKLLQSDKKRTAELANGALGMIELNDDYTLKKVMKPLIASNTVTDEIERANVFKMNGKWYLFTDSRGSKMTIDGITSNDIYMLGYVSNSLTGPYKPLNKTGLVLKMDLDPNDVTFTYSHFAVPQAKGNNVVITSYMTNRGFYADKQSTFAPSFLLNIKGKKTSVVKDSILEQGQLTVNK
notes: as for B1
Km [3]: 13.2 (1.7) mM
kcat [3]: 171.2 (5.7) s^-1
